The text below walks through data of the supplement of paper PMC12042874.

± gives the uncertainty stated by the source.

A short description of the data set: amyloid nucleation score (Sup35N fusion, yeast selection) (log enrichment); library NNK2; higher = more nucleation; inactive = no reads after selection. The essentials:
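Random libraries were run with three technical output replicates. In each, psi-negative yeast expressing Sup35N fused to peptides of 20 random codons were induced 24 hours with 100 μM copper sulfate and grown 7 days at 30°C on medium lacking adenine and uracil, and input and output plasmid inserts were Illumina-sequenced. The nucleation score is the DiMSum log enrichment of output over input reads, centred on the mode score of non-aggregating sequences, and sequences under 100 input reads were excluded.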
Consider RNSSL, for which the amyloid nucleation score amounted to 0.495 ± 0.48.
As for NFWMVPLIA, the amyloid nucleation score was -0.541 ± 0.79.
The substance YVLQYTVKSDVWGTKAIRRP returned an amyloid nucleation score of 0.007 ± 0.79.
In turn, NLCTVVCSDTAVLWTALPRL came in with an amyloid nucleation score of 9.478 ± 0.062.
As to NSRSLTDTHDCMVTGWATRH, the amyloid nucleation score is -0.159 ± 0.45.
Turning to VMCFEYYVYYDYDYTCTFNY, the amyloid nucleation score stood at 0.842 ± 0.12.
In turn, SSRRGNDGWRCGPSCGGCTG yielded an amyloid nucleation score of 3.65 ± 0.082.
On to NYSGYLLNASVRRTMRRRVF, for which the amyloid nucleation score was -1.18 ± 0.47.
Then SYYISHYMSVWISLTDSGCY, with -0.14 ± 0.56.
Regarding SRFLFCVPHVDCWLLTWNLS, the amyloid nucleation score was 6.68 ± 0.073.
VSLRSDSGLGITVLMPPSRS displayed an amyloid nucleation score of 1.6 ± 0.44.
As to GDMLILSENDQRYCGPVDL, the amyloid nucleation score stood at 0.107 ± 0.45.
In turn, VSLWVIKASRVNPFYSPGGK yielded an amyloid nucleation score of 0.301 ± 0.64.
Take ISDAKRNCRCRSLPILIMVW: the amyloid nucleation score is 0.448 ± 0.24.
As for SIVLMCVLMYPPIDVSSWLS, the amyloid nucleation score was found to be 4.415 ± 0.042.
As for CGFIVKTAWGLVLATLGATY, the figure is 2.54 ± 0.11.
In the case of RSHVVH, the amyloid nucleation score was found to be 1.18 ± 0.68.
ESQNECVGYNMLDCMKLSRG yielded an amyloid nucleation score of 4.052 ± 0.037.
As for VWFFGSYHVCWDCTF, the figure is 0.378 ± 0.74.
VNDLLTPCGIHLQPVWDYES displayed an amyloid nucleation score of -0.013 ± 0.49.
In turn, NTGGS gave an amyloid nucleation score of -0.51 ± 0.61.
For MFAVLSLDRGYHKAR, the amyloid nucleation score is -0.205 ± 0.55.
The substance ICSSPLRIISINKLSGTYNL registered an amyloid nucleation score of 2.25 ± 0.14.
Then TKEFGECFIQMIMYNGRDIL, with 1.88 ± 0.1.
Substance NVLSRYYQPYMAPPENKAWD came in with an amyloid nucleation score of -0.277 ± 1.
Regarding QSLSTKRRSVFFAGHQARGK, the amyloid nucleation score was -0.42 ± 0.64.
For EHVVSSRRLYLQGDILLNSQ, the amyloid nucleation score entry was “inactive”.
As for CRITNSNSL, the figure is -0.448 ± 0.28; as for LKMCYFLRNKPTQMHVSGVY, 0.04 ± 0.5.
As to KGNTIKSCSRMMLHRQHVW, the amyloid nucleation score was -0.485 ± 0.45.
As for VRATCWS, the amyloid nucleation score was -0.418 ± 0.55.
EHHYI: the amyloid nucleation score is -0.202 ± 1.
Regarding VMGGDVYTAFTDAEDVDSWG, the amyloid nucleation score came to 0.398 ± 0.22.
In the case of AYKCFGVLCFRRNRSGKEGL, the amyloid nucleation score is -0.318 ± 0.76.
Substance HILRRINIWGGFPCMRVSKN registered an amyloid nucleation score of -0.755 ± 1.1.
In turn, FQLYT registered an amyloid nucleation score of 0.238 ± 0.29.
The substance SLLSPHPLD displayed an amyloid nucleation score of 0.203 ± 0.63.
As for GCRDMIWVGL, the entry is “inactive”; as for YEYVCVLAVACITGRFTLHW, -0.757 ± 0.36.
WLMCMPILRSCWMSSG: the amyloid nucleation score came to 0.749 ± 0.22.
Substance CSLVAPGTYYYGEWFPGQMS yielded an amyloid nucleation score of -0.66 ± 0.29.
In turn, NRHWRFG had an amyloid nucleation score of 2.7 ± 0.11.
Take SRIIMSFTSGLCDNHSKLKC: the amyloid nucleation score was 1.68 ± 0.19.
On to LKGGIFRV, for which the amyloid nucleation score result is “inactive”.
ACHRFYLMKSML displayed an amyloid nucleation score of 1.28 ± 0.36.
Take AVMAISMRS: the amyloid nucleation score was 0.514 ± 0.56.
The substance YFVSSC displayed an amyloid nucleation score of -1.23 ± 0.35.
Then VIPYILTCWVYFIDCLWRRK, with 0.948 ± 0.66.
As for ESTWVCIFSRVLYGGYCGDQ, the figure is 0.244 ± 0.33; as for QQHYLEEPDDESLVRGCRHW, -0.039 ± 0.54.
With DRINSFLFRETVWQNNWVIS, the amyloid nucleation score is -0.263 ± 0.79.
For RALVD, the amyloid nucleation score was -0.548 ± 1.1.
Consider PVKRQGSSAANVPVVW, for which the amyloid nucleation score was 0.444 ± 0.44.
HTAMCAVSGFRNIWSKPVKF yielded an amyloid nucleation score of -0.817 ± 1.1.
Then SACVWVNICTSASNGDPG, with 7.445 ± 0.039.
LKNFNLRIMTTPLNCNCNTY: the amyloid nucleation score is -0.434 ± 0.29.
The substance QHSKD had an amyloid nucleation score of -1.71 ± 0.77.
As for LFDSCSDSRMFNWMGPSNGQ, the entry is “inactive”.
